From patent US5877275A, “Controlling cellular immune/inflammatory responses with β2 integrins” (The General Hospital Corporation, priority 1995, dated 1999) come the findings set out here.

The experiment addresses iC3b (Homo sapiens, UniProt P01024). Kind of experiment: Binding of soluble heterodimer / wild-type receptor to iC3b-sepharose (elution, SDS-PAGE, autoradiography). The note with it: detergent soluble fraction of 125I-surface-labelled neutrophils, immunoprecipitated with 44a mAb from eluate. The procedure: CD11b^1089 /CD18^699 was next tested for its ability to bind iC3b (the receptor bound by wild-type CD11b/CD18). Briefly, COS cells were transfected CD11b^1089 and CD18^699 cDNA as described above. Cells were labeled with ^35 S-methionine as described by Dana et al., J. Clin. Invest. 79:1010 (1987). Supernatants from both co-transfected COS cells (7×10^6 cells) and mock-transfected COS cells (7×10^6 cells) were concentrated to one ml using collodion bags (10,000 MW cut off). 100 μl of the concentrated supernatant were used for immunoprecipitation, and the rest of the supernatant was incubated with C3b-sepharose or iC3b-sepharose. C3b-sepharose and iC3b-sepharose was washed, eluted with 0.4 M NaCl and the eluted proteins were analyzed by SDS-PAGE and autoradiography. Binding of wild-type, membrane-bound CD11b/CD18 to iC3b-sepharose or C3b-sepharose was performed as described by Arnaout et al., (In Methods in Enzymology, DiSabato, Ed., Acad. Press Inc., Fla., 1987) using the detergent soluble fraction from 1×10^8 125 I-surface-labelled neutrophils.
FIG. 3 illustrates the results of SDS-PAGE analysis of neutrophil-derived ^125 I-surface-labeled glycoproteins eluted from C3b-sepharose and iC3b-sepharose. Eluants from C3b-sepharose (lane a) contained complement receptor type 1 (250kD) and the C3-binding regulatory protein gp45/70 (45-70 kD). […]

iC3b, sequence (P01024 23-667 limits assumed): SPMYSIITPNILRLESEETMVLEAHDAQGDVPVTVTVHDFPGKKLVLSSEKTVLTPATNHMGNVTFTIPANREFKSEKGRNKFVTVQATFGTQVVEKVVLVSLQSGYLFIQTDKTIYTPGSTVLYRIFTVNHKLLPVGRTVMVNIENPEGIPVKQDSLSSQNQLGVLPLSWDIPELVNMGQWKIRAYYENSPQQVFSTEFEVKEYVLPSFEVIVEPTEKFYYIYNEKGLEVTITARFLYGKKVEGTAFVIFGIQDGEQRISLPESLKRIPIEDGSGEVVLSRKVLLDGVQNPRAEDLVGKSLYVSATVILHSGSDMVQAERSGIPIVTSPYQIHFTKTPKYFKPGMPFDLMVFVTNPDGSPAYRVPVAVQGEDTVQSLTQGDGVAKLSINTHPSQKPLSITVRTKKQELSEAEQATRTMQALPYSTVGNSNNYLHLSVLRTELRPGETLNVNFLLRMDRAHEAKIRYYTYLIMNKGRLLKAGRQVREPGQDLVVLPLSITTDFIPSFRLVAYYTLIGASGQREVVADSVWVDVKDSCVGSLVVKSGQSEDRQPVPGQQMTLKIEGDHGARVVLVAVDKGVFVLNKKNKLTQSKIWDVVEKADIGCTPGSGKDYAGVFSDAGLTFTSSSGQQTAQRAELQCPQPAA
iC3b, sequence (P01024 749-954 limits assumed): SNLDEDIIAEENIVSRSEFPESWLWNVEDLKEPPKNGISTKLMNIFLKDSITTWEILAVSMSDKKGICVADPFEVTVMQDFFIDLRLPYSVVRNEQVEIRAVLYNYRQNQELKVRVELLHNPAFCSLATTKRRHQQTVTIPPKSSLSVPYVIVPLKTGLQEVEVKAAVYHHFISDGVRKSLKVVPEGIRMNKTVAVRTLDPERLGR
iC3b, sequence (P01024 955-1303 limits assumed): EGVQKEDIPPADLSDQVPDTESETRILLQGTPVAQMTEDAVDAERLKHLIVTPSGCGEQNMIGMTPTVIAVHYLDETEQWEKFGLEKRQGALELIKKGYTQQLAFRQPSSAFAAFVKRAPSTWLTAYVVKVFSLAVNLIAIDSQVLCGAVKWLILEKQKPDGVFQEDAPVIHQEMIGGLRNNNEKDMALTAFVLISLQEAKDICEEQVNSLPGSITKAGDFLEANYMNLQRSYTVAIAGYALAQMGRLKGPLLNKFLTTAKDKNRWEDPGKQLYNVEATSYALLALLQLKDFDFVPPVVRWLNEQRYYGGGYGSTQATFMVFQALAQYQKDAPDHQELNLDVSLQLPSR
iC3b, sequence (P01024 1321-1663 limits assumed): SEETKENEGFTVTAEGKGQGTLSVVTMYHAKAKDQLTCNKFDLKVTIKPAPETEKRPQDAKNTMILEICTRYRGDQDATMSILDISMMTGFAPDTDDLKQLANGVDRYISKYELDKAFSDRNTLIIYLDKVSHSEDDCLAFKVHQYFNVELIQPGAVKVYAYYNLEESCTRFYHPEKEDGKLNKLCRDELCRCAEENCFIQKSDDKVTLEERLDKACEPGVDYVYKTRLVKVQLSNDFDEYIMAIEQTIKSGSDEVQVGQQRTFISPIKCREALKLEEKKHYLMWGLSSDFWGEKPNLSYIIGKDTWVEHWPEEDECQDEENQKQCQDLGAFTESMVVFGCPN

With “CD11b/CD18: wild-type, membrane-bound CD11b/CD18 from surface-labelled neutrophils”, the “binding to iC3b-sepharose” value is reported as “eluted from iC3b-sepharose”.
